Measurements reported in the supplement of paper PMC7877785.
± gives the uncertainty stated by the source.

Assay: self-splicing fitness, log relative to wild type (ln ratio); higher = more splicing; Tetrahymena group I intron in knt gene, E. coli kanamycin selection, DiMSum; sequences stand for … in CUCUCU…GGAGGGAAAAGUUAUCAGGCAUGCACCUGGUAGCUAGUCUUUAAACCAAUAGAUUGCAUCGGUUUAAAAGGCAAGACCGUCAAAUUGCGGGAAAGGGGUCAACAGCCGUUCAGUACCAAGUCUCAGGGGAAACUUUGAGAUGGCCUUGCAAAGGGUAUGGUAAUAAGCUGACGGACAUGGUCCUAACCACGCAGCCAAGUCCUAAGUCAACAGAUCUUCUGUUGAUAUGGAUGCAGUUCACAGACUAAAUGUCGGUCGGGGAAGAUGUAUUCUUCUCAUAAGAUAUAGUCGGACCUCUCCUUAAUGGGAGCUAGCGGAUGAAGUGAUGCAACACUGGAGCCGCUGGGAACUAAUUUGUAUGCGAAAGUAUAUUGAUUAGUUUUGGAGUACUCGUGGUCG
In short: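 Six replicate transformations of E. coli BL21(DE3) with a pET-22b(+) library were grown overnight at 37°C or 30°C. The library randomised all eight P1ex-region intron nucleotides, the intron lying in the knt kanamycin-resistance gene, and plates were LB agar with or without 25 μg/mL kanamycin plus 100 μg/mL carbenicillin, 50 μM IPTG and 0.2% rhamnose. Pooled colonies were amplicon-sequenced on an Illumina HiSeq 2500, and fitness is the DiMSum error-weighted combination of wild-type-normalised replicate fold changes, kanamycin versus none.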

Sequence	self-splicing fitness (ln) (30 °C)	self-splicing fitness (ln) (37 °C)
UGCGAGCAAUAUUACGAUCG	-2.97 ± 0.27	-1.38 ± 0.17
UGCGAGCAAUAUUACGAUUC	-2.7 ± 0.23	–
UGCGAGCAAUAUUACGCACA	-1.31 ± 0.22	-2.16 ± 0.28
UGCGAGCAAUAUUACGCAGC	–	-1.49 ± 0.37
UGCGAGCAAUAUUACGCAUA	-3.48 ± 0.43	-3 ± 0.36
UGCGAGCAAUAUUACGCCAG	-4.1 ± 0.42	–
UGCGAGCAAUAUUACGCCUU	–	-1.7 ± 0.38
UGCGAGCAAUAUUACGCGAA	-3.08 ± 0.19	-2.19 ± 0.19
UGCGAGCAAUAUUACGCGGA	-2.41 ± 0.28	-2.09 ± 0.31
UGCGAGCAAUAUUACGCGUA	-4.01 ± 0.32	-1.6 ± 0.14
UGCGAGCAAUAUUACGCUAU	–	-2.46 ± 0.38
UGCGAGCAAUAUUACGCUUG	-3.11 ± 0.37	-2.05 ± 0.3
UGCGAGCAAUAUUACGGCCA	-0.517 ± 0.13	0.5 ± 0.15
UGCGAGCAAUAUUACGGGCU	-2.97 ± 0.25	–
UGCGAGCAAUAUUACGGGUU	-3.38 ± 0.16	-2.51 ± 0.16
UGCGAGCAAUAUUACGUAAG	-3.72 ± 0.26	-2.34 ± 0.28
UGCGAGCAAUAUUACGUAAU	-2.35 ± 0.22	-1.91 ± 0.24
UGCGAGCAAUAUUACGUCCG	-3.31 ± 0.4	-0.194 ± 0.31
UGCGAGCAAUAUUACGUCCU	-2.35 ± 0.14	-0.627 ± 0.15
UGCGAGCAAUAUUACGUGCC	-3.9 ± 0.47	-2.55 ± 0.33
UGCGAGCAAUAUUACGUGCU	–	-1.79 ± 0.32
UGCGAGCAAUAUUACGUGGA	-3.04 ± 0.23	-3.49 ± 0.33
UGCGAGCAAUAUUACGUUAA	-2.48 ± 0.29	-2.45 ± 0.31
UGCGAGCAAUAUUACGUUCC	-2.19 ± 0.18	-2.66 ± 0.34
UGCGAGCAAUAUUACGUUGA	-3.05 ± 0.27	-3.53 ± 0.32
UGCUAGCAAUAUUACGACGG	-0.768 ± 0.16	-0.44 ± 0.18

Sequence	self-splicing fitness (ln) (30 °C)	self-splicing fitness (ln) (37 °C)
UGCUAGCAAUAUUACGAGCG	-2.86 ± 0.2	-0.792 ± 0.17
UGCUAGCAAUAUUACGAUCC	-0.317 ± 0.41	–
UGCUAGCAAUAUUACGAUUG	-1.16 ± 0.13	-1.51 ± 0.14
UGCUAGCAAUAUUACGCCGG	-0.985 ± 0.22	-1.88 ± 0.5
UGCUAGCAAUAUUACGCGAG	-4.4 ± 0.39	-2.11 ± 0.31
UGCUAGCAAUAUUACGCGUA	-0.838 ± 0.11	-0.531 ± 0.1
UGCUAGCAAUAUUACGCGUG	-0.934 ± 0.074	-0.462 ± 0.082
UGCUAGCAAUAUUACGCUAU	-2.75 ± 0.21	-0.801 ± 0.12
UGCUAGCAAUAUUACGGAUG	-0.534 ± 0.086	-0.268 ± 0.1
UGCUAGCAAUAUUACGGCCG	-0.359 ± 0.12	0.337 ± 0.14
UGCUAGCAAUAUUACGGUAC	–	-0.887 ± 0.39
UGCUAGCAAUAUUACGUAAU	-2.42 ± 0.11	-1.34 ± 0.13
UGCUAGCAAUAUUACGUCCG	-0.00657 ± 0.11	0.18 ± 0.14
UGCUAGCAAUAUUACGUCUA	-1.21 ± 0.11	-0.84 ± 0.1
UGCUAGCAAUAUUACGUGCC	–	-0.724 ± 0.3
UGCUAGCAAUAUUACGUUAG	-3.08 ± 0.19	-3.02 ± 0.33
UGGAAGCAAUAUUACGAAAU	-3.52 ± 0.29	-2.27 ± 0.22
UGGAAGCAAUAUUACGAAGU	-3.57 ± 0.35	–
UGGAAGCAAUAUUACGACUG	-1.26 ± 0.24	-0.683 ± 0.24
UGGAAGCAAUAUUACGAUCC	-2.44 ± 0.47	-2.1 ± 0.41
UGGAAGCAAUAUUACGAUGG	-2.38 ± 0.14	-0.0527 ± 0.12
UGGAAGCAAUAUUACGCACA	-1.44 ± 0.2	0.0258 ± 0.2
UGGAAGCAAUAUUACGCAGG	-3.1 ± 0.42	-1.47 ± 0.4
UGGAAGCAAUAUUACGCCUA	0.049 ± 0.092	-0.109 ± 0.12
UGGAAGCAAUAUUACGCGGU	-2.87 ± 0.17	-2.69 ± 0.2
UGGAAGCAAUAUUACGGACC	-0.695 ± 0.088	-0.372 ± 0.11

Sequence	self-splicing fitness (ln) (30 °C)	self-splicing fitness (ln) (37 °C)
UGGAAGCAAUAUUACGGAGG	-2.93 ± 0.27	-0.696 ± 0.15
UGGAAGCAAUAUUACGGAUU	-1.49 ± 0.08	-1.68 ± 0.12
UGGAAGCAAUAUUACGUAAA	-2.28 ± 0.21	0.0471 ± 0.21
UGGAAGCAAUAUUACGUCUC	–	-2.47 ± 0.32
UGGAAGCAAUAUUACGUGCG	-0.442 ± 0.054	0.0701 ± 0.075
UGGAAGCAAUAUUACGUGGA	-2.88 ± 0.16	-0.926 ± 0.12
UGGAAGCAAUAUUACGUUUA	-0.859 ± 0.072	-0.47 ± 0.086
UGGCAGCAAUAUUACGAAAC	–	-1.52 ± 0.32
UGGCAGCAAUAUUACGAAUG	-0.811 ± 0.061	0.188 ± 0.079
UGGCAGCAAUAUUACGACAA	-0.602 ± 0.14	-0.308 ± 0.16
UGGCAGCAAUAUUACGAGAA	-1.11 ± 0.32	-1.62 ± 0.31
UGGCAGCAAUAUUACGAGCG	-0.577 ± 0.12	0.0222 ± 0.17
UGGCAGCAAUAUUACGAGCU	-1.98 ± 0.16	-1.91 ± 0.19
UGGCAGCAAUAUUACGAGGG	-3.44 ± 0.23	-2.73 ± 0.25
UGGCAGCAAUAUUACGAGUC	-2.79 ± 0.17	-3.11 ± 0.23
UGGCAGCAAUAUUACGCCCC	-1.11 ± 0.29	-0.487 ± 0.36
UGGCAGCAAUAUUACGCGCU	–	-2.45 ± 0.49
UGGCAGCAAUAUUACGCUCG	-0.792 ± 0.083	-0.0749 ± 0.11
UGGCAGCAAUAUUACGCUUG	-2.46 ± 0.12	-0.728 ± 0.15
UGGCAGCAAUAUUACGGAGG	-2.38 ± 0.12	-1.87 ± 0.15
UGGCAGCAAUAUUACGGAUG	-1.79 ± 0.17	-0.817 ± 0.19
UGGCAGCAAUAUUACGGGGA	-2.26 ± 0.13	-2.03 ± 0.14
UGGCAGCAAUAUUACGGUGA	-0.428 ± 0.097	0.214 ± 0.12
UGGCAGCAAUAUUACGGUGG	-0.928 ± 0.079	-0.811 ± 0.11
UGGCAGCAAUAUUACGUGAC	-2.83 ± 0.31	-1.22 ± 0.25
UGGCAGCAAUAUUACGUGCC	–	-1.69 ± 0.26

Sequence	self-splicing fitness (ln) (30 °C)	self-splicing fitness (ln) (37 °C)
UGGCAGCAAUAUUACGUUGU	-3.71 ± 0.29	-3.17 ± 0.3
UGGGAGCAAUAUUACGACCU	-0.992 ± 0.41	-0.238 ± 0.46
UGGGAGCAAUAUUACGACGU	-2.93 ± 0.22	-2.37 ± 0.29
UGGGAGCAAUAUUACGACUA	-1.68 ± 0.35	0.369 ± 0.3
UGGGAGCAAUAUUACGAGGG	–	-1.99 ± 0.42
UGGGAGCAAUAUUACGCACU	-3.4 ± 0.35	-1.76 ± 0.33
UGGGAGCAAUAUUACGCCGC	-2.27 ± 0.47	–
UGGGAGCAAUAUUACGCUCG	–	-1.25 ± 0.46
UGGGAGCAAUAUUACGGAAA	-2.04 ± 0.31	–
UGGGAGCAAUAUUACGGAUA	-2.61 ± 0.32	-2.52 ± 0.32
UGGGAGCAAUAUUACGGCCA	-1.58 ± 0.13	-0.684 ± 0.16
UGGGAGCAAUAUUACGGGCA	-2.36 ± 0.16	-0.757 ± 0.16
UGGGAGCAAUAUUACGGGUU	–	-2.02 ± 0.47
UGGGAGCAAUAUUACGUAAC	-1.63 ± 0.41	–
UGGGAGCAAUAUUACGUCUG	-1.46 ± 0.12	-0.899 ± 0.17
UGGGAGCAAUAUUACGUGCU	-2.65 ± 0.32	-1.05 ± 0.25
UGGGAGCAAUAUUACGUGGC	-4.39 ± 0.39	-1.68 ± 0.23
UGGGAGCAAUAUUACGUGUC	-2.08 ± 0.19	-2.59 ± 0.33
UGGGAGCAAUAUUACGUUGA	-3.73 ± 0.37	-2.06 ± 0.27
UGGGAGCAAUAUUACGUUUA	-2.62 ± 0.29	-2.92 ± 0.33
UGGUAGCAAUAUUACGACCU	-0.697 ± 0.13	0.261 ± 0.14
UGGUAGCAAUAUUACGACGU	-0.945 ± 0.12	-0.0819 ± 0.16
UGGUAGCAAUAUUACGAGCA	-0.502 ± 0.15	-0.131 ± 0.21
UGGUAGCAAUAUUACGAGCC	-2.3 ± 0.32	-1.91 ± 0.26
